From patent publication US20060287236A1

Molecular target: endogenous peptides
Assay: acid eluate of purified heterodimer, Edman pool sequencing

B1: soluble rat FcRn heterodimer (receptor, part only; not given: light chain, UniProt P13599 23-291, looked up, part only)
MHC heavy: AEPRLPLMYHLAAVSDLSTGLPSFWATGWLGAQQYLTYNNLRQEADPCGAWIWENQVSWYWEKETTDLKSKEQLFLEAIRTLENQINGTFTLQGLLGCELAPDNSSLPTAVFALNGEEFMRFNPRTGNWSGEWPETDIVGNLWMKQPEAARKESEFLLTSCPERLLGHLERGRQNLEWKEPPSMRLKARPGNSGSSVLTCAAFSFYPPELKFRFLRNGLASGSGNCSTGPNGDGSFHAWSLLEVKRGDEHHYQCQVEHEGLAQPLTVDL
  pmole of amino acids recovered from acid elution, cycle 1: 5.9 pmol
  pmole of amino acids recovered from acid elution, cycle 2: 4.7 pmol
  pmole of amino acids recovered from acid elution, cycle 3: 0.7 pmol
  pmole of amino acids recovered from acid elution, cycle 4: 7.6 pmol
  pmole of amino acids recovered from acid elution, cycle 5: 0 pmol
  pmole of amino acids recovered from acid elution, cycle 6: 0 pmol
  pmole of amino acids recovered from acid elution, cycle 7: 0.2 pmol
  pmole of amino acids recovered from acid elution, cycle 8: 0.6 pmol
  pmole of amino acids recovered from acid elution, cycle 9: 9.5 pmol
  pmole of amino acids recovered from acid elution, cycle 10: 0.3 pmol
